First the molecules themselves.
B1: Hammerhead Ribozyme (parent)
chain: ACCGGAUGUGCUUUCCGGUCUGAUGAGUCCGUGAGGACGAAACAG

Variants of B1 are the subject of the data set. Nature of the data set: self-cleavage, relative activity (ratio to wild type); higher = more cleavage; co-transcriptional.
Regarding ACCGGAUGUGCUUUCCGGUCUUAUCAGUCCGUGAGGACGAAACAG, the self-cleavage is 0.264.

With ACCGGUUGUGCUUUCCGGUCUGAUGAGUCCGUAAGGACGAAACAG, the self-cleavage is 0.793.

As for ACCGGAUGUGCUUUCCAGUCUGAUGAGUCCAUGAGGACGAAACAG, the self-cleavage was 0.875. As for ACCGGAUGUGCUUUCCUGUCUGAUGAGGCCGUGAGGACGAAACAG, the self-cleavage worked out at 0.513. As to ACCGGAUGUGCUUUCCGGACUGAUGAGUCUGUGAGGACGAAACAG, the self-cleavage was 0.369. ACCGGAUGUGCUUUCCGGUCUGAUGAAUCCGUGAAGACGAAACAG: the self-cleavage turned out to be 0.505. ACCGGAUGUGCUUUGCGGUCUGAUGGGUCCGUGAGGACGAAACAG: the self-cleavage was 0.364. As for ACCGGAUGUGCAUUCCGGUCUGAUGAGUCCGUGAGGACGAAACGG, the self-cleavage was found to be 1.66. As to ACCGGAUGUGCUUUCCGGUCUGAGGAGUCCGUGAGGACGAAACAC, the self-cleavage was determined as 0.536. As for ACCGGAUGUGCUUUCCGGUCUGAUGAGUCCGUGGGGACGGAACAG, the figure is 0.345; as for ACCUGAUGUGCUUUCCGGUCUGAUGAGUCCAUGAGGACGAAACAG, 0.612. Consider ACCGGAUGGGCUUUCCGGUCUGAUAAGUCCGUGAGGACGAAACAG, for which the self-cleavage amounted to 0.205. For ACCGGAUGUGCUUUCCGGUCUGACGAGCCCGUGAGGACGAAACAG, the self-cleavage is 1.06.

ACCGGAUGUACUGUCCGGUCUGAUGAGUCCGUGAGGACGAAACAG: the self-cleavage stood at 0.956. Turning to ACCGGAUGUGCUUUCCGAUCUGAUGAGUCGGUGAGGACGAAACAG, the self-cleavage is 0.381. Take ACCGGAUGUGCUUUCCGGUCUGGUGAGUCCGUGAGGACGAAGCAG: the self-cleavage came to 0.324. Regarding ACCGGAUGUGCUUUCCGUUCUGAUCAGUCCGUGAGGACGAAACAG, the self-cleavage stood at 0.322. The value for AGCGGAUGUGCUUUCCGGUCGGAUGAGUCCGUGAGGACGAAACAG was 0.331; that for ACCGGAUGUGCUUUCCGGUCUGAUGAGUCCUUGAGGACGAAACCG was 0.564.

Turning to ACUGGAUGUGCUUUCCGGUCUGAUGAGUCCGUGAGGACCAAACAG, the self-cleavage amounted to 0.462. Turning to ACCGGAUGUGCCUUCCGGUCUGCUGAGUCCGUGAGGACGAAACAG, the self-cleavage was found to be 0.361. As for ACCGGAUGUGCCUUCCGGUCUGUUGAGUCCGUGAGGACGAAACAG, the figure is 0.321; as for ACCGGAUGUGCUUUCCGGUCGGAUGAGUGCGUGAGGACGAAACAG, 0.285; as for AGCGGAUGUGCUUUCCGGUCUGAUGAGUCCGUGAGGACUAAACAG, 0.268. Turning to ACCGGAUGUACUUUCCGGUCUGAUGAGUCCGUAAGGACGAAACAG, the self-cleavage stood at 1.21. Turning to ACCGGAUGUGCUUGCCAGUCUGAUGAGUCCGUGAGGACGAAACAG, the self-cleavage is 0.544.

For the variant ACCGGAUGUGCUCUCCGGUCUGAUGAGUCCGCGAGGACGAAACAG, the self-cleavage was 1.11. As for ACCGGACGUCCUUUCCGGUCUGAUGAGUCCGUGAGGACGAAACAG, the self-cleavage is 0.781. Take AUCGGAUGUGCUUUCCGGUCUGAUGAUUCCGUGAGGACGAAACAG: the self-cleavage amounted to 0.568. For the variant ACCGGAUGUGCUUUCCGGUCUGAUUAGUCCGUGAGGGCGAAACAG, the self-cleavage was found to be 0.287. In the case of ACCGGAUGGGCUUUCGGGUCUGAUGAGUCCGUGAGGACGAAACAG, the self-cleavage was 0.456. The value for ACCGGAUGUGCUUUCCGGUCUGAAGAGUCCGCGAGGACGAAACAG was 0.569; that for ACCGGAUGUGCUUGCCGGUCUCAUGAGUCCGUGAGGACGAAACAG was 0.301.

Consider ACCGGAUGUGCUUUCCGGUCUUAUGAUUCCGUGAGGACGAAACAG, for which the self-cleavage worked out at 0.273.

As for ACCGGAUGUGCUUUCGGGUCUGAUGAGUCCGUGAGGACGAAACAU, the self-cleavage was determined as 0.467. On to ACCGGGUGUGCUUUCCGGUCUCAUGAGUCCGUGAGGACGAAACAG, for which the self-cleavage came to 0.284. As for ACCGGAUGUGCUUUACGGUCUGAUGAGUCCGUGAGCACGAAACAG, the figure is 0.379; as for ACCGGAUGUGCUUUCCGGUCUGAUGAGUCGGUGAGGAUGAAACAG, 0.797. ACCGGAUGUGCGUUCCGGUCUGAUGACUCCGUGAGGACGAAACAG: the self-cleavage worked out at 0.433. As to ACCGGAUGUGCUUUCCGGUCUGAUAAGUCCGUGGGGACGAAACAG, the self-cleavage is 0.3. Turning to ACCGGGUGUGCUUUCCGGUCUGAUGAGUCAGUGAGGACGAAACAG, the self-cleavage came to 0.48. Regarding ACCGGAUAUGCUUUCCGGUCUGAUGAGUCCGUGAGGACGAAACGG, the self-cleavage worked out at 1.41. As for ACCUGAUGUGCUUUCCGGUCUGAUGAGUCCGUGAGGACGAAACAG, the figure is 0.515; as for ACCGGAUGUGCUUUCCGGUCUGAUGGGUCCGUGAGGACGAAACGG, 0.654; as for ACCGGAUGUGCUUUCCGGCCUGUUGAGUCCGUGAGGACGAAACAG, 0.372.

With ACCGGAUGUGCUUUCCGGUCUGAUGAGUACGUGAUGACGAAACAG, the self-cleavage worked out at 0.727. The value for ACCGGAUGUGCUUUCCGGUCUGCUGAGGCCGUGAGGACGAAACAG was 0.398; that for ACCGGAUGUGCUUUCCGGUCUGAUGAUGCCGUGAGGACGAAACAG was 0.507; that for ACCGGAUGUGUUUUCCGGUCUGAUGAGUCCGUGAGUACGAAACAG was 0.669. With ACCGGAUGUGCUUUCCGGUCUGAUUAGUCCGAGAGGACGAAACAG, the self-cleavage was 0.32. The value for ACCGGAUGUGCUUUCCGGUCUGCUGAGUCCGUGCGGACGAAACAG was 0.374. On to ACCGGAUGUGCUUUCCGGUCUGAUGAGUCAGUGAGGACCAAACAG, for which the self-cleavage is 0.303. As for ACCUGAUGUGCUUUCCGGUCUGAUUAGUCCGUGAGGACGAAACAG, the self-cleavage came out at 0.253.

As to ACCGGAUGUGCUUUCCGGUCUGAUGAGACCGUGAGGACGCAACAG, the self-cleavage turned out to be 0.352.

Take ACCGGAUGUGCUUUCCGAUCUGAUCAGUCCGUGAGGACGAAACAG: the self-cleavage is 0.332. As for ACCGGAUGUGCUUUCCGGUCUGAGGAGUCCGUGAUGACGAAACAG, the self-cleavage turned out to be 0.907. ACCGGAUGUGCUUUCCAGUCUGAUGAGUCCGUGAGGACGGAACAG: the self-cleavage was determined as 0.361.

The values above are taken from the RNAGym collection of RNA variant scans (doi:10.7554/elife.80360).
